Source: patent publication US20230322943A1 (SUNSHINE GUOJIAN PHARMACEUTICAL SHANGHAI, published 2023)

Experiments:
[1] = target: T1, human full-length CD38 on cells (human, UniProt P28907 1-300); experiment: flow cytometry on CHOS-CD38 cells, PE secondary antibody
T1 construct: whole, on cells; One molecule is used for cell-surface human CD38; also called CD38 on CHOS-CD38 cells; CD38 on the surface of Daudi cells
Text: (§1) Flow cytometry was used to detect the binding activity of murine antibodies to recombinant high-expression cell line CHOS-CD38 cells and tumor cell line DND-41 cells. The specific methods were as follows:
(§2) CHOS-CD38 and DND-41 cells were collected, centrifuged to remove the cell culture medium, and the cells were washed twice with PBS buffer. The cells were counted and diluted with 1%BSA FACS buffer to 2^{∗}10⁶ cells/ml. The cells were spread into round-bottom 96-well plate for use. The antibody to be tested was diluted with 1%BSA buffer for 8 gradients and added to the round-bottom plate with the above cells. The plate was incubated at 4° C. for 1 hour. After centrifugation, the supernatant was removed and the plate was washed 3 times with 1% BSA FACS buffer. 100 µl donkey anti-mouse PE fluorescent secondary antibody or goat anti-human PE fluorescent secondary antibody was added to each well at a ratio of 1:300 (see the instructions for fluorescent secondary antibody for details), and the plate was incubated at 4° C. for 1 hour. The samples were washed for 3 times with 1% BSA FACS buffer and then re-suspended with 1% BSA FACS buffer at 200 µl/well. FACScalibur BD was used to analyze the samples.

human CD38-Fc protein = target: T2, human CD38-Fc protein (human, UniProt P28907 43-300); experiment: indirect ELISA, CD38-Fc coated at 1 ug/ml, HRP goat anti-mouse IgG
T2 construct: extracellular domain; Recombinant Fc-tagged extracellular segment of human CD38; not shown: Fc tag

[2] = target: T1, human full-length CD38 on cells; experiment: flow cytometry on DND-41 tumor cells, PE secondary antibody
Text: as §1, §2

[3] = target: T1, human full-length CD38 on cells; experiment: flow cytometry on Daudi cells (MFI), FITC goat anti-human Fc secondary antibody
Experimental: After Daudi cells were counted, PBS solution containing 1% BSA was used to inoculate the cells into 96-well round-bottom culture plates with 2×10⁵ cells per well. 50 µl anti-CD38 antibody in gradient dilution with PBS solution was added to the 96-well plate. The plate was incubated at room temperature for 1 h, then it was centrifuged to discard the supernatant. Then the cells was washed with PBS twice. FITC-labeled goat anti-human (Fc-Speicific) antibody was added (1:1000 diluted with PBS containing 1% BSA) and the plate was incubated at room temperature for half an hour. The cells was centrifuged and washed, then the Mean Fluorescence Intensity (MFI) of the FITC channel was detected by flow cytometry. The flow cytometer software was used to process the experimental data and the mean fluorescence intensity was calculated. The GraphPad Prism6 was used for data analysis and mapping, and EC50 was calculated.

[4] = target: T1, human full-length CD38 on cells; experiment: cell-based or functional assay

| EC50 [1] | EC50 (human CD38-Fc protein) | EC50 [2] | EC50 [3] | ADCC EC50 (Daudi target cells, human PBMC effectors, LDH release) [4] | apoptosis induction EC50 (Daudi cells, Annexin V-FITC) [4] | Binder |
| --- | --- | --- | --- | --- | --- | --- |
| 0.687 µg/mL | 0.173 nM | 0.134 µg/mL | – | – | – | murine antibody 50G12 (antibody, V domains shown, Mouse monoclonal antibody purified from hybridoma supernatant by Protein G; also called 50Ga12; 50G12 murine antibody) VH: QVQLQQSGAELARPGASVKLSCKASGYTFNTYWMQWVKQRPGQGLEWIGAIYPGDGDITYNQKFKGKATLTADKSSNTAYMHLSSLASEDSAVYYCAREGYYYGGALDYWGQGTSVTVSS VL: QIFLTQSPAIMSASLGERVTMTCTASSSVSSSYLHWYQQKPGSPPKLWMYGTSNLASGVPPRFSGSGSGTSYSLTISSMEAEDAATYYCHRYHRSPWTFGGGTKLEIK |
| – | – | – | 0.528 nM | – | – | 50G12-Chimeric (antibody, human IgG1, V domains shown, Murine 50G12 VH joined to the human IgG1 heavy chain constant region and murine 50G12 VL joined to the human Kappa chain constant region; also called 50G12-Chimeic; 50G12-Chi-HC / 50G12-Chi-LC) VH: QVQLQQSGAELARPGASVKLSCKASGYTFNTYWMQWVKQRPGQGLEWIGAIYPGDGDITYNQKFKGKATLTADKSSNTAYMHLSSLASEDSAVYYCAREGYYYGGALDYWGQGTSVTVSS VL: QIFLTQSPAIMSASLGERVTMTCTASSSVSSSYLHWYQQKPGSPPKLWMYGTSNLASGVPPRFSGSGSGTSYSLTISSMEAEDAATYYCHRYHRSPWTFGGGTKLEIK |
| – | – | – | 0.605 nM | 0.106 nM | 0.568 nM | 50G12-Humanized (antibody, human IgG1, kappa, V domains shown, Human IgG1 / Kappa; also called humanized antibody 50G12-Humanized; 50G12-Hu-HC / 50G12-Hu-LC) VH: QVQLVQSGAEVKKPGASVKVSCKASGYTFNTYWMQWVRQAPGQGLEWMGAIYPGDGDITYNQKFKGRVTLTADKSTSTVYMELSSLRSEDTAVYYCAREGYYYGGALDYWGQGTLVTVSS VL: DIQMTQSPSSLSASVGDRVTITCTASSSVSSSYLHWYQQKPGKAPKLWMYGTSNLASGVPSRFSGSGSGTDYTLTISSLQPEDFATYYCHRYHRSPWTFGQGTKVEIKR |
